Reference: publication PMC6086869, “Accelerated pharmaceutical protein development with integrated cell free expression, purification, and bioconjugation” (Scientific Reports, 2018)

What was measured:
[1] = target: Peptide 3 (NpuDnaEC16 capture peptide with ANP photocleavable residue); test: pull-down; peptide 3 immobilised by its His6 on HisPur Ni-NTA magnetic beads; hCNTF-NpuDnaE(ΔC16) in BYL or HeLa CFPS matrix, overnight, room temperature; captured share from Western blots of the matrix before and after capture; the capture is followed by protein trans splicing, which ligates hCNTF covalently to the peptide's C-terminal stretch
[2] = target: the molecule itself; test: SDS-PAGE without β-mercaptoethanol in the loading buffer, Western blot; purified hCNTF standard; anti-hCNTF polyclonal antibody for detection

Row | amount of hCNTF bound to the beads [1] [μg/mg beads] | Molecule | binding result [2]
1 | 1.14 | hCNTF-NpuDnaE(ΔC16) synthesised in the HeLa cell free system (from UniProt P26441 1-200) | –
2 | 0.42 | hCNTF-NpuDnaE(ΔC16) synthesised in the tobacco BY-2 lysate (BYL) cell free system (from UniProt P26441 1-200) | –
3 | – | His6-hCNTF (purified human ciliary neurotrophic factor used as standard) (natural protein, UniProt P26441 1-200, looked up, human ciliary neurotrophic factor, codon optimised gene, plasmid pOPINF-CNTF (Itkonen et al. 2014); also called purified hCNTF; purified His6-hCNTF; source: E. coli Rosetta 2 (DE3) pLysS, purified (Ni-IDA resin, size exclusion chromatography)) MAFTEHSPLTPHRRDLCSRSIWLARKIRSDLTALTESYVKHQGLNKNINLDSADGMPVASTDQWSELTEAERLQENLQAYRTFHVLLARLLEDQQVHFTPTEGDFHQAIHTLLLQVAAFAYQIEELMILLEYKIPRNEADGMPINVGDGGLFEKKLWGLKVLQELSQWTVRSIHDLRFISSHQTGIPARGSHYIANNKKM | binds
